The results in this text go back to patent US20250145718A1 (ABL BIO, published 2025).

Usually Kd stands for the constant that tells how readily two partners part at equilibrium. High values mean weaker binding, low ones tighter binding. For orientation: koff means the rate constant with which the complex falls apart. The low end stands for a long-lived complex, the high end for a short-lived complex. As a reminder, the kon is the second-order rate constant of association. Low readings indicate slower complex formation, high ones faster complex formation. Broadly, the EC50 (read off the curve) is the midpoint of the concentration-response curve.

Read-outs that look alike come from different tables or passages of the source.

The target in experiment [1] is T1, 4-1BB expressed on Jurkat cells (4-1BB-Jurkat cells; GloResponse NFkB-luc2/4-1BB Jurkat cell line) (human, UniProt Q07011 24-255). The experiment is described as follows: cell-based or functional assay.
T1 sequence (Q07011 24-255 limits assumed): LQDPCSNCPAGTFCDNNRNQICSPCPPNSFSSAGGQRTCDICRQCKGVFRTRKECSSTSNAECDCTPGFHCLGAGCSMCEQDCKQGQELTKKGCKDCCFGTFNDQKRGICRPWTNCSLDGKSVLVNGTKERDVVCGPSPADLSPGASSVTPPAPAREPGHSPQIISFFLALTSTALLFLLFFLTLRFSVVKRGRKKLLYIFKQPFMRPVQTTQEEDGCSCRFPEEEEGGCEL
Experiment [2] has as its target T2, 4-1BB (Octet Red 96 kinetics, Example 2.2(3)) (human, UniProt Q07011 24-186, limits assumed).
T2 construct: also called human 4-1BB
As to the kind of experiment: BLI (Octet Red 96), affinity ranking. The text has this:
To explore the binding kinetics of the humanized antibody, this example performed the affinity ranking by using Octet Red 96.
On the technique in general: In BLI a coated tip is dipped into the sample, and binding shifts an interference pattern.

Another experiment concerns the target T3, human 4-1BB-Fc protein (human, UniProt Q07011 24-186, limits assumed).
T3 construct: not shown: Fc part of the fusion
The experiment is described as follows: ELISA, plate coated with human 4-1BB-Fc, detection with anti-human IgG-HRP, OD 450-630 nm. The method, then:
To evaluate the antigen binding activity, the antibody candidates were subjected to ELISA test. Briefly, microtiter plates were coated with human 4-1BB-Fc protein at 0.1 μg/ml in PBS, 100 μl/well at 4° C. overnight, then blocked with 100 μl/well of 5% BSA. […] The plates were washed with PBS/Tween and then incubate with goat-anti-human IgG antibody conjugated with Horse Radish Peroxidase (HRP) for 1 hour at RT. After washing, the plates were developed with TMB substrate and analyzed by spectrophotometer at OD 450-630 nm.
(In general: ELISA stands for enzyme-linked immunosorbent assay.)

Experiment [3] addresses T1, 4-1BB expressed on Jurkat cells …. As to the kind of experiment: cell-based or functional assay. This is another data set of the same source.
Experiment [4] concerns the target T4, human PD-L1-Fc protein (Sinobio, 10084-H02H) (human, UniProt Q9NZQ7 19-239).
T4 construct: Purchased reagent; not shown: Fc part of the purchased fusion
The experiment is described as follows: DACE (dual antigen capture ELISA): plate coated with human PD-L1-Fc, then bispecific, then human 4-1BB-His, anti-His HRP. As for the experimental part:
(§1) Briefly, microtiter plates were coated with 100 ng/well of human PD-L1-Fc protein (Sinobio, 10084-H02H) in PBS at 4° C. overnight, then blocked with 100 μl/well of 1% BSA for 2 hours at 37° C. Three-fold dilutions of each of the BsAbs starting from 100 nM were added to each well and incubated for 2 hours at 37° C. The plates were washed with PBS/Tween and then incubate with 50 ng/well of human 4-1BB-His protein (Sinobio, 16498-H08H) in 1% BSA for 1 hour at 37° C. The plates were washed with PBS/Tween and then incubate with Anti-His HRP (Roche, Cat: 11965085001) for 1 hour at 37° C. After washing, the plates were developed with TMB substrate and analyzed by spectrophotometer at OD 450-650 nm.

Experiment [5] deals with T4, human PD-L1-Fc protein (Sinobio, …). The experiment is described as follows: DACE after incubation in human serum for 3, 7, 14 days at 37 C. The method, then: as §1, with “Binding activity was analyzed to DACE (Dual antigen captured ELISA) test. Briefly,” for “Briefly,”
For experiment [6], the target named is T1, 4-1BB expressed on Jurkat cells …. The experiment is described as follows: cell-based or functional assay. This is another data set of the same source.
Experiment [7] concerns the target T5, human 4-1BB-His protein (Sinobio, 16498-H08H) (human, UniProt Q07011 24-186).
T5 construct: Purchased reagent; not shown: His tag of the purchased protein
The experiment is described as follows: DACE after incubation in human serum for 3, 7, 14 days at 37 C. The method, then: as §1, with “Binding activity was analyzed to DACE (Dual antigen captured ELISA) test. Briefly,” for “Briefly,”

In experiment [8] the target is T5, human 4-1BB-His protein (Sinobio, …). As to the kind of experiment: DACE (dual antigen capture ELISA): bispecific captured on coated human PD-L1-Fc binds soluble human 4-1BB-His, detected with anti-His HRP. As for the experimental part:
as §1

Experiment [9] addresses T4, human PD-L1-Fc protein (Sinobio, …). The experiment is described as follows: DACE (dual antigen capture ELISA): bispecific titrated on coated human PD-L1-Fc; signal also needs binding of human 4-1BB-His (anti-His HRP). The method, then:
as §1

For experiment [10] the target is unchanged. As to the kind of experiment: DACE after incubation in human serum at 37 C for 0, 3, 7 or 14 days: bispecific titrated on coated human PD-L1-Fc; signal also needs binding of human 4-1BB-His (anti-His HRP). The method, then:
as §1, with “Binding activity was analyzed to DACE (Dual antigen captured ELISA) test. Briefly,” for “Briefly,”

Experiment [11] deals with PD-L1 (Biacore kinetics, Example 1.5) (UniProt Q9NZQ7 19-238, limits assumed). The experiment is described as follows: SPR (Biacore), affinity ranking.
Chain of PD-L1 (Biacore kinetics, Example 1.5) (Q9NZQ7 19-238 limits assumed): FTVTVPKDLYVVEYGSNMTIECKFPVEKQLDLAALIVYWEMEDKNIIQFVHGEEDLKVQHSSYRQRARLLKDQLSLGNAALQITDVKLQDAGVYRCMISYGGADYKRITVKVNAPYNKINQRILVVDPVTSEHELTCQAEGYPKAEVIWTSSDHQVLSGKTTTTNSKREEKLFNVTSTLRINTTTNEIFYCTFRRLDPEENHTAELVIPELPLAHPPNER

T4 sequence (Q9NZQ7 19-239): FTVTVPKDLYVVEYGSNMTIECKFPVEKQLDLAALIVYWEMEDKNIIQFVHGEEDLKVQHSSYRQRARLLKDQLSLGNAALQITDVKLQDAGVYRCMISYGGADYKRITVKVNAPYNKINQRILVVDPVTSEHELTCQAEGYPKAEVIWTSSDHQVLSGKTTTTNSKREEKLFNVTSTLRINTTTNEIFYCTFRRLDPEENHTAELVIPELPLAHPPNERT

B1: 41B01 (anti-4-1BB monoclonal antibody) (antibody, V domains shown)
VH: EVQLLESGGGLVQPGGSLRLSCAASGFTFSSYDMSWVRQAPGKGLEWVSWISYSGGSIYYADSVKGRFTISRDNSKNTLYLQMNSLRAEDTAVYYCARDGQRNSMREFDYWGQGTLVTVSS
VL: QSVLTQPPSASGTPGRRVTISCSGSSSNIGNNYVTWYQQLPGTAPKLLIYADSHRPSGVPDRFSGSKSGTSASLAISGLRSEDEADYYCATWDYSLSGYVFGGGTKLTVL
notes: Detected with anti-human IgG, so it was tested as a human IgG
With B1, the “EC50 (read off the curve), NFkB-luc2/4-1BB Jurkat reporter, Fc-crosslinked antibody” value in [1] was ~4 nM. Besides, in experiment [2], the Kd was determined as 0.18 nM, the koff amounted to 0.000119 s⁻¹ and the kon is 658000 M⁻¹ s⁻¹. The “EC50 (read off the curve)” value with human 4-1BB-Fc protein is ~0.08 nM.

B2: 41B02 (anti-4-1BB monoclonal antibody) (antibody, V domains shown)
VH: EVQLLESGGGLVQPGGSLRLSCAASGFTFSGYDMSWVRQAPGKGLEWVSVIYPDDGNTYYADSVKGRFTISRDNSKNTLYLQMNSLRAEDAAVYYCAKHGGQKPTTKSSSAYGMDGWGQGTLVTVSS
VL: QSVLTQPPSASGTPGRRVTISCSGSSSNIGNNYVTWYQQLPGTAPKLLIYADSHRPSGVPDRFSGSKSGTSASLAISGLRSEDEADYYCATWDYSLSGYVFGGGTKLTVL
notes: Detected with anti-human IgG
In experiment [2], B2 yielded a Kd of 1.01 nM, a koff of 0.000603 s⁻¹ and a kon of 595000 M⁻¹ s⁻¹. For the same molecule, the “EC50 (read off the curve)” value with human 4-1BB-Fc protein was ~0.2 nM.

B3: ABLPNB.03 (H12x41B02; anti-PD-L1 H12 in IgG form and anti-4-1BB 41B02 in scFv form) (bispecific antibody)
heavy: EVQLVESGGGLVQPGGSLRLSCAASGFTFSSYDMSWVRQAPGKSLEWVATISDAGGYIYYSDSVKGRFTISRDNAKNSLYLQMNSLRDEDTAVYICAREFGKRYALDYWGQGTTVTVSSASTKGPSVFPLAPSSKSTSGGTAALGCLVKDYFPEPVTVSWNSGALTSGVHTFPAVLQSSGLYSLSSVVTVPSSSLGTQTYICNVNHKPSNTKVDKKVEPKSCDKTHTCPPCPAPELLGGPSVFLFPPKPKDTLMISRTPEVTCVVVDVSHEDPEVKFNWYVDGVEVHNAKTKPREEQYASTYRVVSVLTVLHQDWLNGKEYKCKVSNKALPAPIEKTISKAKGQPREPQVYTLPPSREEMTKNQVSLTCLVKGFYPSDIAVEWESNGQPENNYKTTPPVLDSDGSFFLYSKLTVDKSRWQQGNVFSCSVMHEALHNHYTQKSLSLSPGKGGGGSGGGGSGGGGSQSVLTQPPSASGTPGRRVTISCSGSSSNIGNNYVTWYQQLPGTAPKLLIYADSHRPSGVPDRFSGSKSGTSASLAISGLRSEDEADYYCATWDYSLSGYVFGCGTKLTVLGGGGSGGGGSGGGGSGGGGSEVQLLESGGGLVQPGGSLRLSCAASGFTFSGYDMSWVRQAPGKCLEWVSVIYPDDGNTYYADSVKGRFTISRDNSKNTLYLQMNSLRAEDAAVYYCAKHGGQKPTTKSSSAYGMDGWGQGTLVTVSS
light: DIQMTQSPSSLSASVGDRVTITCKASQDVTPAVAWYQQKPGKAPKLLIYSTSSRYTGVPSRFSGSGSGTDFTFTISSLQPEDIATYYCQQHYTTPLTFGQGTKLEIKRTVAAPSVFIFPPSDEQLKSGTASVVCLLNNFYPREAKVQWKVDNALQSGNSQESVTEQDSKDSTYSLSSTLTLSKADYEKHKVYACEVTHQGLSSPVTKSFNRGEC
notes: IgG x scFv form, IgG1 N297A backbone
Consider B3, for which the “EC50 (read off the curve), NFkB-luc2/4-1BB Jurkat reporter with PD-L1 positive target cells” value (“EC50 … with PD-L1 positive target cells” for short) in experiment [3] was ~0.1 nM. In [4], the binding result is listed as “binds”.

B4: ABLPNB.05 (B6x41B01.01; anti-PD-L1 B6 in IgG form and anti-4-1BB 41B01.01 in scFv form) (bispecific antibody)
heavy: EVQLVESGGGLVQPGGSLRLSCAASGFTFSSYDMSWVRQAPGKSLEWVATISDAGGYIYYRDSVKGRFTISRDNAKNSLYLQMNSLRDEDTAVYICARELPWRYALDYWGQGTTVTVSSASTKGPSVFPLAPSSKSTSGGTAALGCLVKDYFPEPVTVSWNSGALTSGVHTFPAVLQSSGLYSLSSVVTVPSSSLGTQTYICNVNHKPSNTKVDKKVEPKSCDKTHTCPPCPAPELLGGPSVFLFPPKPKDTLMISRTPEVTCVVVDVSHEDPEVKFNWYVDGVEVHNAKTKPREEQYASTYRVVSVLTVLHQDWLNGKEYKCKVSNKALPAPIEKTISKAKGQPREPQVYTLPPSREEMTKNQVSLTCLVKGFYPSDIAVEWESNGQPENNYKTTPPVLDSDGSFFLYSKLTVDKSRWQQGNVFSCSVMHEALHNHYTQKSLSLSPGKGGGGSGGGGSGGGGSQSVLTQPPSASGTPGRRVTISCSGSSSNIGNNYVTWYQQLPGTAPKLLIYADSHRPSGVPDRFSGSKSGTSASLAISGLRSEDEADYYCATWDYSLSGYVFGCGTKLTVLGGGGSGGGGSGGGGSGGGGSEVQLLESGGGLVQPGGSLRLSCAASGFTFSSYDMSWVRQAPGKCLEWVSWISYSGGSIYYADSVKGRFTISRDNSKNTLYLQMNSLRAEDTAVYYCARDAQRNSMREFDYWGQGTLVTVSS
light: DIQMTQSPSSLSASVGDRVTITCKASQDVTPAVAWYQQKPGKAPKLLIYSTSSRYTGVPSRFSGSGSGTDFTFTISSLQPEDIATYYCQQHYTTPLTFGQGTKLEIKRTVAAPSVFIFPPSDEQLKSGTASVVCLLNNFYPREAKVQWKVDNALQSGNSQESVTEQDSKDSTYSLSSTLTLSKADYEKHKVYACEVTHQGLSSPVTKSFNRGEC
notes: as for B3
On to B4, for which the binding result in [5] is recorded as “binds”.

B5: ABLPNB.08 (B6x41B01.04; anti-PD-L1 B6 in IgG form and anti-4-1BB 41B01.04 in scFv form) (bispecific antibody)
heavy: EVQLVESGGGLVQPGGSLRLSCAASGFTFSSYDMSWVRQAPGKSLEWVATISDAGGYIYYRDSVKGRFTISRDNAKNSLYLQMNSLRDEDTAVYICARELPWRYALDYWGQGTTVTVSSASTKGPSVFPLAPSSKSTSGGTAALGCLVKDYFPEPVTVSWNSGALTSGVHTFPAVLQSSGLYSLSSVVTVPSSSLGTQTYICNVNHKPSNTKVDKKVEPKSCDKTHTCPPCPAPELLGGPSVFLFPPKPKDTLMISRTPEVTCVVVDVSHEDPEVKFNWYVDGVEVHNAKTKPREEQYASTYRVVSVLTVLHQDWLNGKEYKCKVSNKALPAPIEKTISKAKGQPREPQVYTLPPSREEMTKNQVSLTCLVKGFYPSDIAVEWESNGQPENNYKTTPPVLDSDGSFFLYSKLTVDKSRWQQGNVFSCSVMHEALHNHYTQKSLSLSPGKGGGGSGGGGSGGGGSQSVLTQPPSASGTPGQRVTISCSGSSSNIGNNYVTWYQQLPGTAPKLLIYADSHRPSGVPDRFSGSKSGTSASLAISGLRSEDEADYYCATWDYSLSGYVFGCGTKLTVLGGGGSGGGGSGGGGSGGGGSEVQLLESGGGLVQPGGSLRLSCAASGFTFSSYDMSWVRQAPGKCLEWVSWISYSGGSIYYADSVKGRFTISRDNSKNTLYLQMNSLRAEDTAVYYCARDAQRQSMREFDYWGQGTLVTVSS
light: DIQMTQSPSSLSASVGDRVTITCKASQDVTPAVAWYQQKPGKAPKLLIYSTSSRYTGVPSRFSGSGSGTDFTFTISSLQPEDIATYYCQQHYTTPLTFGQGTKLEIKRTVAAPSVFIFPPSDEQLKSGTASVVCLLNNFYPREAKVQWKVDNALQSGNSQESVTEQDSKDSTYSLSSTLTLSKADYEKHKVYACEVTHQGLSSPVTKSFNRGEC
notes: as for B3
For the molecule B5, the “EC50 … with PD-L1 positive target cells” value in [6] is ~0.09 nM. The binding result in experiment [5] is “binds”.

B6: ABLPNB.06 (anti-PD-L1 B6 in IgG form and anti-4-1BB 41B01.02 in scFv form) (bispecific antibody)
heavy: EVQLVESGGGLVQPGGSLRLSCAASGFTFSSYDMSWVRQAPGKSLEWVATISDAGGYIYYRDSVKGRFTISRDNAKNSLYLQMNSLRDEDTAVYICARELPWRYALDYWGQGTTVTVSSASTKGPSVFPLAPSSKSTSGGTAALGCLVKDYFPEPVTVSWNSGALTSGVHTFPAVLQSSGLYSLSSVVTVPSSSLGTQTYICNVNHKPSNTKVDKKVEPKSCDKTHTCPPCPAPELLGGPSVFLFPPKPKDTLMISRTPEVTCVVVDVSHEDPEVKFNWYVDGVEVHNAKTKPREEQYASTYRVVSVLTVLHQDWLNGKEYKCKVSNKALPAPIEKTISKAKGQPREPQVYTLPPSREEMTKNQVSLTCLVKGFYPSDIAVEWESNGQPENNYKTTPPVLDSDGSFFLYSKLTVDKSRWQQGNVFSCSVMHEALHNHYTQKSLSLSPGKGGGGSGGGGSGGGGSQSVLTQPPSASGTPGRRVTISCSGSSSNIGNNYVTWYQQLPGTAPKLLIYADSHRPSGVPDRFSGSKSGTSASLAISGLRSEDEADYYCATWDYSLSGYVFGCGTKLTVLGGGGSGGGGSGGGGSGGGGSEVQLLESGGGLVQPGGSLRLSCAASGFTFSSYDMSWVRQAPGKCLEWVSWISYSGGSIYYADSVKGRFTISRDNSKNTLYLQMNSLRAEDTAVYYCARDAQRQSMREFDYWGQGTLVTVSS
light: DIQMTQSPSSLSASVGDRVTITCKASQDVTPAVAWYQQKPGKAPKLLIYSTSSRYTGVPSRFSGSGSGTDFTFTISSLQPEDIATYYCQQHYTTPLTFGQGTKLEIKRTVAAPSVFIFPPSDEQLKSGTASVVCLLNNFYPREAKVQWKVDNALQSGNSQESVTEQDSKDSTYSLSSTLTLSKADYEKHKVYACEVTHQGLSSPVTKSFNRGEC
notes: as for B3
With B6, the binding result in experiment [7] and in experiment [5] was “binds” each time.

B7: ABLPNB.04 (B6x41B01; anti-PD-L1 B6 in IgG form and anti-4-1BB 41B01 in scFv form) (bispecific antibody)
heavy: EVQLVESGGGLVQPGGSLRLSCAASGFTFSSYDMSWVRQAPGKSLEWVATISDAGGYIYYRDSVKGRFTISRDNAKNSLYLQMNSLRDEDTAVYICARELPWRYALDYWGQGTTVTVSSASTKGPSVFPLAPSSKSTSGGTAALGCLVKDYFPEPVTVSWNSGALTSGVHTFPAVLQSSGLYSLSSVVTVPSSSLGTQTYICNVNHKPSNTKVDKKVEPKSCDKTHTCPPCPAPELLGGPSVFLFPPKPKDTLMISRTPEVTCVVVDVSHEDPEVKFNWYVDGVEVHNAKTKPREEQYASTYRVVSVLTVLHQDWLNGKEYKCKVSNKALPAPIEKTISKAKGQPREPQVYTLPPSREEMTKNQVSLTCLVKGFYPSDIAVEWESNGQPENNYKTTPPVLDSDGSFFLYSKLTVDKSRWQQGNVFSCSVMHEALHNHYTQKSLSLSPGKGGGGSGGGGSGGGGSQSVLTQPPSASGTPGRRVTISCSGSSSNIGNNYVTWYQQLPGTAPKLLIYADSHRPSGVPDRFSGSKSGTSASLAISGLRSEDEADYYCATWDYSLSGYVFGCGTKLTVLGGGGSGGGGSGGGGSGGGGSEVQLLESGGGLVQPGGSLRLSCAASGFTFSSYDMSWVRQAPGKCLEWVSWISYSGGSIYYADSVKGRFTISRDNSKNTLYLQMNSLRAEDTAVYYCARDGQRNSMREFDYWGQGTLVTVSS
light: DIQMTQSPSSLSASVGDRVTITCKASQDVTPAVAWYQQKPGKAPKLLIYSTSSRYTGVPSRFSGSGSGTDFTFTISSLQPEDIATYYCQQHYTTPLTFGQGTKLEIKRTVAAPSVFIFPPSDEQLKSGTASVVCLLNNFYPREAKVQWKVDNALQSGNSQESVTEQDSKDSTYSLSSTLTLSKADYEKHKVYACEVTHQGLSSPVTKSFNRGEC
notes: as for B3
B7: the binding result in experiment [8] is recorded as “binds”. Further, in experiment [9], the “EC50 (read off the curve)” value was ~0.6 nM.

B8: ABLPNB.07 (B6x41B01.03; anti-PD-L1 B6 in IgG form and anti-4-1BB 41B01.03 in scFv form) (bispecific antibody)
heavy: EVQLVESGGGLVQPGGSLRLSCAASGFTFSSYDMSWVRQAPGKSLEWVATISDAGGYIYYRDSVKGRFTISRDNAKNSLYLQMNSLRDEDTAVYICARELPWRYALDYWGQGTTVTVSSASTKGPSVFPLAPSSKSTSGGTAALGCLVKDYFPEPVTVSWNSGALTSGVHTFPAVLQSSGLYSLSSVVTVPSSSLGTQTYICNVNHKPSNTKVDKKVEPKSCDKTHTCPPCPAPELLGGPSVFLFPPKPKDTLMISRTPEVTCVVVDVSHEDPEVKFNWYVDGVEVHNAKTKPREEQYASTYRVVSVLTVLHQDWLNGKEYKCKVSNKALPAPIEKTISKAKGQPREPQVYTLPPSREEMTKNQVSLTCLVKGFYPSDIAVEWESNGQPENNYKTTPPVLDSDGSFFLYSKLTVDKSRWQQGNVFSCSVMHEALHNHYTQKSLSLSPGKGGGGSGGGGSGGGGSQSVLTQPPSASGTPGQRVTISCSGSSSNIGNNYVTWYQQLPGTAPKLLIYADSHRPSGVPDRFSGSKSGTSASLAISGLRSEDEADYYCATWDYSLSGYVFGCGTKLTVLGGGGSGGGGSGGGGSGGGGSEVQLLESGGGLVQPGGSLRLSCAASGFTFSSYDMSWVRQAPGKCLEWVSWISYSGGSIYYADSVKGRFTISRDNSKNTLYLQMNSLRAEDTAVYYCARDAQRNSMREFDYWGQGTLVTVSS
light: DIQMTQSPSSLSASVGDRVTITCKASQDVTPAVAWYQQKPGKAPKLLIYSTSSRYTGVPSRFSGSGSGTDFTFTISSLQPEDIATYYCQQHYTTPLTFGQGTKLEIKRTVAAPSVFIFPPSDEQLKSGTASVVCLLNNFYPREAKVQWKVDNALQSGNSQESVTEQDSKDSTYSLSSTLTLSKADYEKHKVYACEVTHQGLSSPVTKSFNRGEC
notes: as for B3
Take B8: the “EC50 … with PD-L1 positive target cells” value in [6] was ~0.06 nM. Besides, the entries for the “EC50 (read off the curve)” value in [9] and in experiment [10] were ~0.9 nM and ~0.2 nM, respectively.

B9: ABLPNB.01 (H12x41B01; anti-PD-L1 H12 in IgG form and anti-4-1BB 41B01 in scFv form) (bispecific antibody)
heavy: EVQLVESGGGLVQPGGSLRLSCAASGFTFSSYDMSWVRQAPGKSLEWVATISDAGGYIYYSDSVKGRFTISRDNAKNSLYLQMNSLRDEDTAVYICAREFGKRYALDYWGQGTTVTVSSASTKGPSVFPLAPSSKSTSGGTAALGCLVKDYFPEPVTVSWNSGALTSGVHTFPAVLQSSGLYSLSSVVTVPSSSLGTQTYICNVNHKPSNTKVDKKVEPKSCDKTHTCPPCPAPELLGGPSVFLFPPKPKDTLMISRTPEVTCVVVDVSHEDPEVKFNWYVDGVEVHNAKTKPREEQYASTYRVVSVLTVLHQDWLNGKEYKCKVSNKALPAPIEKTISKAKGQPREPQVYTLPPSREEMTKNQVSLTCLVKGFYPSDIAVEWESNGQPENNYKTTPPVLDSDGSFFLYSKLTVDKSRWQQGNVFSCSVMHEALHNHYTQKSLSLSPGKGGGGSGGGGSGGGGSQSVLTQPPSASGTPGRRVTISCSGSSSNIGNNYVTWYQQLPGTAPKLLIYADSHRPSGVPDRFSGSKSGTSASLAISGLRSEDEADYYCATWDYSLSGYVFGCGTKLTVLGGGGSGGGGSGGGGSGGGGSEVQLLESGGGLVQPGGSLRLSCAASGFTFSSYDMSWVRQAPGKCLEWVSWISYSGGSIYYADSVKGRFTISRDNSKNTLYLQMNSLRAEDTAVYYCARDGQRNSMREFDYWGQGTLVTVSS
light: DIQMTQSPSSLSASVGDRVTITCKASQDVTPAVAWYQQKPGKAPKLLIYSTSSRYTGVPSRFSGSGSGTDFTFTISSLQPEDIATYYCQQHYTTPLTFGQGTKLEIKRTVAAPSVFIFPPSDEQLKSGTASVVCLLNNFYPREAKVQWKVDNALQSGNSQESVTEQDSKDSTYSLSSTLTLSKADYEKHKVYACEVTHQGLSSPVTKSFNRGEC
notes: IgG x scFv form; The heavy component is the H12 heavy chain (IgG1 N297A), a linker, and the scFv (VL-linker-VH, disulfide VL103-VH44)
With B9, the binding result in experiment [4] and in experiment [8] was “binds” throughout.

B10: H12 (Hu1210-41; Hu1210 VH.4d x Hu1210 VK.1) (antibody, V domains shown)
VH: EVQLVESGGGLVQPGGSLRLSCAASGFTFSSYDMSWVRQAPGKSLEWVATISDAGGYIYYSDSVKGRFTISRDNAKNSLYLQMNSLRDEDTAVYICAREFGKRYALDYWGQGTTVTVSS
VL: DIQMTQSPSSLSASVGDRVTITCKASQDVTPAVAWYQQKPGKAPKLLIYSTSSRYTGVPSRFSGSGSGTDFTFTISSLQPEDIATYYCQQHYTTPLTFGQGTKLEIK
notes: also called WT (H12)
For B10, in experiment [11], binding was put at a Kd of 6.12 nM, the koff stood at 0.000436 s⁻¹ and the kon was determined as 71200 M⁻¹ s⁻¹.

B11: B6 (anti-PD-L1 clone derived from Hu1210-41) (antibody, V domains shown)
VH: EVQLVESGGGLVQPGGSLRLSCAASGFTFSSYDMSWVRQAPGKSLEWVATISDAGGYIYYRDSVKGRFTISRDNAKNSLYLQMNSLRDEDTAVYICARELPWRYALDYWGQGTTVTVSS
VL: DIQMTQSPSSLSASVGDRVTITCKASQDVTPAVAWYQQKPGKAPKLLIYSTSSRYTGVPSRFSGSGSGTDFTFTISSLQPEDIATYYCQQHYTTPLTFGQGTKLEIK
In experiment [11], B11 gave a Kd of 4.25 nM, a koff of 0.000418 s⁻¹ and a kon of 98300 M⁻¹ s⁻¹.
